# Assay results reported in paper PMC7001106, “Lipid Interactions of a Ciliary Membrane TRP Channel: Simulation and Structural Studies of Polycystin-2” (Structure(London, England:1993), 2020).
# B1: Polycystin-2, truncated construct hPC2: Pro185 - Asp723 (domain or fragment, human, UniProt Q13563 185-723, looked up)
# chain: PRVAWAERLVRGLRGLWGTRLMEESSTNREKYLKSVLRELVTYLLFLIVLCILTYGMMSSNVYYYTRMMSQLFLDTPVSKTEKTNFKTLSSMEDFWKFTEGSLLDGLYWKMQPSNQTEADNRSFIFYENLLLGVPRIRQLRVRNGSCSIPQDLRDEIKECYDVYSVSSEDRAPFGPRNGTAWIYTSEKDLNGSSHWGIIATYSGAGYYLDLSRTREETAAQVASLKKNVWLDRGTRATFIDFSVYNANINLFCVVRLLVEFPATGGVIPSWQFQPLKLIRYVTTFDFFLAACEIIFCFFIFYYVVEEILEIRIHKLHYFRSFWNCLDVVIVVLSVVAIGINIYRTSNVEVLLQFLEDQNTFPNFEHLAYWQIQFNNIAAVTVFFVWIKLFKFINFNRTMSQLSTTMSRCAKDLFGFAIMFFIIFLAYAQLAYLVFGTQVDDFSTFQECIFTQFRIILGDINFAEIEEANRVLGPIYFTTFVFFMFFILLNMFLAIINDTYSEVKSDLAQQKAEMELSDLIRKGYHKALVKLKLKKNTVD
# notes: Polycystin-2 (PC2, PKD2, TRPP1), human, residues Pro185 to Asp723; For cryo-EM the protein was treated with alpha-L-fucosidase, PNGase F and TEV protease (the tag stands after a TEV site); The forward primer carries an ATG before the Pro185 codon; Homo-tetramer; also called PKD2; TRPP1; not shown: His10, C-terminal, cleaved; FLAG, C-terminal, cleaved
# Molecular target: the molecule itself
# Test: cryo-EM structure; purified PC2 185-723 in UDM detergent, incubated overnight at 4°C with 18:0-20:4 PI(4,5)P2 (1:20, tetramer:lipid) or 18:1 PI(3,5)P2 (1:40); C4 symmetry imposed in the reconstruction
protein,measurement,value
B1,stoichiometry N,4
